The source of these data is patent publication US20240368668A1, “SUBSTRATES AND BIOMARKERS OF ADAMTS7” (The Broad Institute, Inc., priority 2021, published 2024).

Square brackets hold non-standard residues; d marks the D form. Ends that are not written are not given here.

The assay addresses T1, mouse ADAMTS7 (Mus musculus, UniProt Q68SA9).
T1 construct: Full-length mouse Adamts7 1-1857 (Uniprot Q68SA9, WT or E373Q catalytic mutant); expressed in transfected cells; host or cells: Human Coronary Artery Smooth Muscle Cells (HCA-SMC, Lonza), adenovirus 50 MOI
T1 sequence (Q68SA9 221-1657): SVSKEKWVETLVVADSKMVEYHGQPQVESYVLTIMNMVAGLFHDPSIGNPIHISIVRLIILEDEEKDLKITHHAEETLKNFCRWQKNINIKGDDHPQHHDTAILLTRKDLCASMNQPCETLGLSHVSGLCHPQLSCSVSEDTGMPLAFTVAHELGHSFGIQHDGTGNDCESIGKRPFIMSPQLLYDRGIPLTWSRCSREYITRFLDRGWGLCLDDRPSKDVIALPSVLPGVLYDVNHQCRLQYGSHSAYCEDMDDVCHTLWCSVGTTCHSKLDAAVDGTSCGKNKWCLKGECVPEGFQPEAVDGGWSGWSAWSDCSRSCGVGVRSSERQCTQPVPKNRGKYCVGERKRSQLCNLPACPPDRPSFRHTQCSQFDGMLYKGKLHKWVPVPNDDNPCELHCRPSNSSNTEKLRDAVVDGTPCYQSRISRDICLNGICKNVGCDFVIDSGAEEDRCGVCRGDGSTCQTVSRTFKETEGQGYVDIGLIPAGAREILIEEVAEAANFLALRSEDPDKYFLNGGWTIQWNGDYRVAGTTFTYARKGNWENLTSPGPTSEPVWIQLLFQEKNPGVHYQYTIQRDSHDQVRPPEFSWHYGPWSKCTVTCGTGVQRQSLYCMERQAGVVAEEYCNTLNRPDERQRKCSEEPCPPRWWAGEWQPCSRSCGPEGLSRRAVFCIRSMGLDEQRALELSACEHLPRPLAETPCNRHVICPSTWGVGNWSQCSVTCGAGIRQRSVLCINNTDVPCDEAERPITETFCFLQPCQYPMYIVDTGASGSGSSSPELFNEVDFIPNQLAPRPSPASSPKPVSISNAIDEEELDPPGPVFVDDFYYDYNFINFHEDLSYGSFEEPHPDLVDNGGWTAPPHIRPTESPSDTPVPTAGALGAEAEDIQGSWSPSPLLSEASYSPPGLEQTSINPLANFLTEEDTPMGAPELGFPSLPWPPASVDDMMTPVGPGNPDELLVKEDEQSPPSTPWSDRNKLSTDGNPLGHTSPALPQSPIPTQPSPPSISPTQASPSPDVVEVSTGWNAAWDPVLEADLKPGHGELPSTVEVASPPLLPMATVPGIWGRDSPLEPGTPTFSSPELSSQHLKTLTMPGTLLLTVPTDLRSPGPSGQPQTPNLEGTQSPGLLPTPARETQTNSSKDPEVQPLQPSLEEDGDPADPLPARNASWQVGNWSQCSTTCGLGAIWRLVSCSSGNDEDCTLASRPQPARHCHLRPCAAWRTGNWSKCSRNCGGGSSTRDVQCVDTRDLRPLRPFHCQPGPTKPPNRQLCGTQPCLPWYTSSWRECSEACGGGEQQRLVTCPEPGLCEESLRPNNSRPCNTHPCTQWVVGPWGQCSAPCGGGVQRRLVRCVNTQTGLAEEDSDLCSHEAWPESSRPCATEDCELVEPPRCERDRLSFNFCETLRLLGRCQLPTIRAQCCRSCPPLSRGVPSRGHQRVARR
The assay is described as follows: TMT10 TAILS N-terminomics, HUVEC experiment (process replicates, trypsin/AspN digest). The conditions noted are these: HUVEC TAILS HC; log fold change of N-terminal peptide, Ad-mADAMTS7 WT over Luc. In kind it is cell-based, human. A digest of the protocol: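 Full-length mouse ADAMTS7 (WT or E373Q mutant, C-terminal 3xFLAG) or luciferase was transduced via adenovirus, 50 MOI, into HCA-SMC (SMC1, SMC2) or HUVEC. SMC1: pooled media, technical triplicates 400 ug; SMC2: process triplicates 300 ug; HUVEC: process triplicates 200 ug, bFGF2 10 ng/ml.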
Regarding “ECM1_108 (QEAVPLQK; listed as Homo sapiens)”, the logFC.mWT.over.Luc amounted to 2.21. As to “EFEMP1_125_ (VAGPEMQTGR; listed as Homo sapiens)”, the logFC.mWT.over.Luc is 2.34. In the case of “ERAP2_718 (ISENLKR; listed as Homo sapiens)”, the logFC.mWT.over.Luc turned out to be 5.05. Take “EWSR1_87 (YSQPVQGYGTGAY; listed as Homo sapiens)”: the logFC.mWT.over.Luc is 1.10. “FN1_34 ([code q]QMVQPQSPVAVSQSKPGCY; not fully specified (residue 3); listed as Homo sapiens)” yielded a logFC.mWT.over.Luc of 1.37. The substance “FN1_35 ([code q]MVQPQSPVAVSQSKPGCY; not fully specified (residue 2); listed as Homo sapiens)” gave a logFC.mWT.over.Luc of 2.31. For “FN1_293 (VYQPQPHPQPPPYGHCVT; listed as Homo sapiens)” the value was 0.96; for “FN1_607 (SSSGPVEVFIT; listed as Homo sapiens)”, 2.31.

Regarding “FN1_1144 (TPGVEYVYTIQVLR; listed as Homo sapiens)”, the logFC.mWT.over.Luc is 1.43.

Regarding “FN1_1780 (LQGLRPGSEYTVSVVALH; listed as Homo sapiens)”, the logFC.mWT.over.Luc was found to be 1.80.

Take “FN1_1805 (LIGTQSTAIPAPT; listed as Homo sapiens)”: the logFC.mWT.over.Luc is 1.47. As for “FN1_2113 (FVTHPGY; listed as Homo sapiens)”, the logFC.mWT.over.Luc came to 1.05.

“FSTL1_290 (LQKHQETA; listed as Homo sapiens)” had a logFC.mWT.over.Luc of 2.34. Take “LOX_125 (FQAGYSTSR; listed as Homo sapiens)”: the logFC.mWT.over.Luc is recorded as 3.82.
